Source: US6087330A, “Process to inhibit binding of the integrin α4 β1 to VCAM-1 or fibronectin and cyclic peptides therefor” (Texas Biotechnology Corporation, priority 1998, dated 2000)
Bridges are numbered along the chain shown (N, C = ends). Where no end group is shown, it is not given here.

Biological target: T1, integrin α4 β1 binding to VCAM-1 (Homo sapiens, UniProt P05556+P13612)
T1 construct: endogenous in cells; host or cells: HL-60 cells (integrin α4β1); VCAM-IgG fusion made in house in transfected COS cells
Assay: VCAM-1/α4 β1 Binding Assay (binding of labeled HL-60 cells to VCAM-IgG fusion protein on magnetic beads)
Assay type: cell-based
Conditions: 10 min at room temperature
Procedure: Peptides were assayed for their ability to inhibit the binding of the integrin α4 β1 to VCAM. […] The assays are described below.
VCAM-1/α4 β1 Binding Assay
The assay involves determining the ability of cells that express α4 β1 to bind directly to purified VCAM. The integrin-expressing cell type used in this assay was HL-60, a human promyelocytic line.
An expression vector was designed such that a region of VCAM known to bind the integrin was expressed as a fusion protein with mouse IgG. A cDNA containing the two N-terminal domains of human VCAM was generated by the polymerase chain reaction (PCR) from a full length VCAM cDNA. Similarly, a cDNA containing the hinge, CH2 and CH3 regions of mouse IgG, was amplified by PCR from cDNA made from total RNA isolated from the hybridoma cell line 402C10. […]
HL-60 cells were fluorescently labeled with Calcein AM C-3099 (Molecular Probes) and resuspended in 1 ml of binding buffer (Hank's balanced salt solution, pH 7.4, 1.0 mM CaCl2, 1.0 mM MgCl2). […] The remaining bound cells were lysed in 50 mM Tris, pH 7.4, 5.0 mM EDTA, 1.0% NP-40 and quantitated by fluorimetry using a Millipore Cytofluor 2350 fluorimeter. Dose response curves were calculated and IC50 values determined. Alternatively, the percent adhesion was determined at a single peptide concentration for comparison among peptides.

T1 sequence (P13612 34-1032): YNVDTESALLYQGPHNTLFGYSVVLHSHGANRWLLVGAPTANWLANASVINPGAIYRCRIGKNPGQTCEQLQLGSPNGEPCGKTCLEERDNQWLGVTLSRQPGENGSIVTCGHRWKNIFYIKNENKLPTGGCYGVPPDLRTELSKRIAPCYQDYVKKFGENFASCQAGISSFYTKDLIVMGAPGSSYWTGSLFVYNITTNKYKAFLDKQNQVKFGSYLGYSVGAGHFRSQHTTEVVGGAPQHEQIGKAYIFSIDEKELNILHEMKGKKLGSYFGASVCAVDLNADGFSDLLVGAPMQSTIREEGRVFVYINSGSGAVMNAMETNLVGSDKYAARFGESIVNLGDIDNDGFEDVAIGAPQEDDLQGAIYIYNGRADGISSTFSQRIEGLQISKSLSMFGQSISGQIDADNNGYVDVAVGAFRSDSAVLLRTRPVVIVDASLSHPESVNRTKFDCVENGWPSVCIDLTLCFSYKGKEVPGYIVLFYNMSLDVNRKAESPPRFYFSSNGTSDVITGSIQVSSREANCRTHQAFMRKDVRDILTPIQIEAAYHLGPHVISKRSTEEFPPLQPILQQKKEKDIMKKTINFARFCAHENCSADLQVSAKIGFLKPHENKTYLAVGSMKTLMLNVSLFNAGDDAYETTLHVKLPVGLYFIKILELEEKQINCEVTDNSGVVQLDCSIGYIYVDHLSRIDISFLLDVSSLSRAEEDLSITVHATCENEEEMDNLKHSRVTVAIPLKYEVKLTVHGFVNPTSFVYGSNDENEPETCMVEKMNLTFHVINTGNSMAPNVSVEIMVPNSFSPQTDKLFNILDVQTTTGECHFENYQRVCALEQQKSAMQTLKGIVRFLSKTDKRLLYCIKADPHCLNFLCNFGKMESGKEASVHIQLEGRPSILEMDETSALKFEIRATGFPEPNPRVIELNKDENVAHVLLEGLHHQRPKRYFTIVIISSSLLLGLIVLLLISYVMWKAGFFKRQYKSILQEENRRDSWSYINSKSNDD
T1 sequence (P05556 21-798): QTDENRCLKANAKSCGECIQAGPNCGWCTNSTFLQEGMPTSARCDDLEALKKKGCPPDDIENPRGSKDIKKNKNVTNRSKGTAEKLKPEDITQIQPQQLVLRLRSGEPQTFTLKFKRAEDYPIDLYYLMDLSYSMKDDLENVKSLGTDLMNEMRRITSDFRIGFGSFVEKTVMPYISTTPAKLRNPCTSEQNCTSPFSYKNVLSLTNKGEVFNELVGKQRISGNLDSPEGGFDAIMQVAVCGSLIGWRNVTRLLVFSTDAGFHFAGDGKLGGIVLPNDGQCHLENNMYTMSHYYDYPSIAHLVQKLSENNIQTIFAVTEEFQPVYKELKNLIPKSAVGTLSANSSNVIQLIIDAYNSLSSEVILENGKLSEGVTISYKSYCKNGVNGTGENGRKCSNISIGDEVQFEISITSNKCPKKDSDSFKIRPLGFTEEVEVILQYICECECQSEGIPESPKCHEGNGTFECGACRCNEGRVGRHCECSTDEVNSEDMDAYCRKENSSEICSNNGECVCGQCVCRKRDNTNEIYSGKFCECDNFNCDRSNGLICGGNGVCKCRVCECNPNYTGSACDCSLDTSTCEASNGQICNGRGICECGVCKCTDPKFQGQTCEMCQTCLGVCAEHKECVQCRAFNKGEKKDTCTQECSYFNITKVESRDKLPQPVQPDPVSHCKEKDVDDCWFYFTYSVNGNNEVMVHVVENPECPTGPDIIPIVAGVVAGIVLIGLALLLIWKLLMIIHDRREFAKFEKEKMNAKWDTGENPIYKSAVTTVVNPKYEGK

concentration of peptide found to significantly inhibit the binding of α4 β1 integrin to VCAM-1	Substance
less than 10 μM	Cys-Trp-Leu-Asp-Leu-Cys-acid (CWLDLC-OH; disulfide 1-6; not fully specified (N-terminus, bridges); printed as Cys-Trp-Leu-Asp-Leu-Cys-acid) [SEQ ID NO:28]
less than 10 μM	Cys-Trp-Leu-Asp-Tyr-Cys-acid (CWLDYC-OH; disulfide 1-6; not fully specified (N-terminus, bridges); printed as Cys-Trp-Leu-Asp-Tyr-Cys-acid) [SEQ ID NO:29]
